# Test results taken from the DeepSol protein solubility set.
# Assay: soluble on expression in E. coli; label from the status in PepcDB or PDB records
row,Sequence,soluble on expression in E. coli
1,GPGSMHAFRTRDITLRVPSKDKLLRFSFCSSRHLLAETIRRHDLLRSTGAHVDFLQLLGTQITFTSLLASALEGEERVEARFTAEEATILTEALALGECRCYLRPEYNAQLAECGLPTFPLRVNRILYRQEKPFSSVVHADLAELLQPPCDVASSFAAASSGANEASGAPFSLYLPDMERRVPLEAWKSFFSYNSSLHAYNYLRRSDGSVPAVWLQSRIDAVRLVDHGFLNVDSTAAAAAWQRGEACSDEDDEKAQDIRRALLHAIPFSFGVVVTPLAAGVAVDQRVNQLNRVVMEAAALLSAPSGGGATVTSALQPLLDRCAEKHTACQHILSLVSGDHDGAYQAAVAARQYNDDPAQVAAVVDPIRRALGVQDFVVPLAATEAARSGLDFFCRCSKQNVLESLVSAPPRALESLKGSDNTVHCSFCGRRYKLAGAEWQELEMARSASTPPQ,not soluble
2,MAIALSTLVEEADRYLDAARIQDYCPNGLQVEGRPQVRRIVSGVTASQALLDAAVEADADVVLVHHGYFWKGENPCVVGMKQRRLKTLLNNDISLLAYHLPLDLHPEVGNNVQLARQLGFEVEGPLEPGNPRSIVLLGSLAEPMQPADFARHVRDALGREPLLVDAGQPIRRIAWCTGGAQGYIDQAIAAGVDAYLTGEVSEQTVHSARENGISFIAAGHHATERYGVQALGDYLGKRFAIEHLFIDCPNPALEHHHHHH,soluble
3,MIKIGAHMPISKGFDRVPQDTVNIGGNSFQIFPHNARSWSAKLPSDEAATKFKREMKKHGIDWENAFCHSGYLINLASPKDDIWQKSVELLKKEVEICRKLGIRYLNIHPGSHLGTGEEEGIDRIVRGLNEVLNNTEGVVILLENVSQKGGNIGYKLEQLKKIRDLVDQRDRVAITYDTCHGFDSGYDITKKEGVEALLNEIESLFGLERLKMIHLNDSKYPLGAAKDRHERIGSGFIGEEGFAVFFSFKEIQEVPWILETPGGNEEHAEDIKKVFEIIEKFGIEVD,soluble
4,SNAMKILLIGASGTLGSAVKERLEKKAEVITAGRHSGDVTVDITNIDSIKKMYEQVGKVDAIVSATGSATFSPLTELTPEKNAVTISSKLGGQINLVLLGIDSLNDKGSFTLTTGIMMEDPIVQGASAAMANGAVTAFAKSAAIEMPRGIRINTVSPNVLEESWDKLEPFFEGFLPVPAAKVARAFEKSVFGAQTGESYQVY,soluble
5,MSNQRSSLKHLNTFALPAYASNVISAGSVETLIAAWHESKAKRQPVLLLGEGSNVLFIKNFSGTVLLNRIMGITSTEDSAAWYLHVGAGENWHQLVCHSLQNNMPGLENLALIPGCVGSAPIQNIGAYGVELKQVCEYVDLLDMDKGTIQRISAEECQFGYRDSIFKHRYGNGFAIVSVGIKLMKSWTPTLGYGDLIHMDPLTVTATDIFNSVCTMRRSKLPDPMVTGNAGSFFKNPVVSAAIAEEIVHCYPNAPHYLQPDGSVKLAAGWLIDQCSLKGYQIGGAAVHQQQALVLINQSEATGQDVIHLARYIRQQVAQRFSIWLEPEVRFIADNGEVNAVEHLS,not soluble
6,MSLEYIIKNGIVYDPLNGINGEKMDICVKDGKIVESVSDNAKVIDASGCVVMPGGIDSHSHVAGAKVNVGRIFRPEDSKREIYAKKGLRTGTGFSVPSTYKTGYQYSEMGYTTVIEAAMPPLIARHTHEEFMETPQIDKAAMPLFGNNWMVLEYLKEGDIKACAAFVAWLLKAVKGFAIKIVNPGGTEAWGWGKNVHSLDDPVPYFDITPREIVRGLAEVNELLGLPHSIHVHPNNLGHPGNWETTLETMKCVEGVEAKPRVGERETSYYNTHCQFHSYGGTSWKDFESKAIEIAEYVNKSKHVVIDVGQVTLDETTTMTADGPMEYDLHMTNGLKWANCDVELETGSGVVPFIYSPKGPVYAVQWAIGLELFLNTNTDKVLLTTDHPNAGPFTRYPRVIAWLMSKKYRDEWLYNKVHKWAQQRSHVADADKEYDLYEIAKITRANQAKVLGLSETKGHLGVGAEADIAIYAIDPEEKDGKKIEKAFRYAKYVLKGGEVVVKDGNVVKEVFGDTIYVDVQVGEDLMNEVLKDVGEKFRRYYSVNLENYPVSDEYANSWRVIKIDATDINEGHHHHHH,not soluble
7,MNRDLPVLRALRSLPDKVVGEALVSNDAISMRYDVDASTGKVVRPSHDLYGQSISGKVLIFKNTKGGVATGWALLNLKSRGTAPIALVCDTTNPVFVQGAALAGLPIMDGFRESPRSAVRTGDVVELDGISGELKVLRRGAGGQLEHHHHHH,not soluble
8,MSLRATWGDVRQGLWMSLTRAGLLHLNADPDPKNWRPHILVLSGAPRRRWPVIELASALTHNQALMTVGTVLRPSEASDFEAQREAEATLREYLGSRGVQSLVRTTTAEDPFAGGERLIEDYGLGVLKPNTIMLGHTEDPTHHEQFCTLIKHLYAARRNVAVLRGGNQGFGNRERIDVWWSGLKGNGGLMKILAYLLQTNLEWQNAQVRVNVVADDDEEAEEQRQTVGPILDQLRTGAALNVIEADGRIFDEIVHDASADADIVFLGMATPDEEGDYVTYYTRLHERTAGLPPTVFVLAAEEISFRDVLALEHHHHHH,not soluble
9,GMKTIIRQPQLYRFLKYCNESNLDKTVLDCGAGGDLPPLSIFVEDGYKTYGIEISDLQLKKAENFSRENNFKLNISKGDIRKLPFKDESMSFVYSYGTIFHMRKNDVKEAIDEIKRVLKPGGLACINFLTTKDERYNKGEKIGEGEFLQLERGEKVIHSYVSLEEADKYFKDMKVLFKEDRVVERINDGLKIKQGYVDYIAEKFSKSIL,soluble
10,MNSAPKLNTFQHLIGEHQTFLEAKRIAKQFSLSELPVLITGKIGTGKNHFAHAIHLESSRSNEPFISVNCSTHSEETLIHELFGPNGNTGVFQKAVRGTLFLDDVWRMPASVQAQLLKALDSDTEKPRMICASADRSVEHTFRQDLFYRLNILTLTLPELSERKSDIPLLTQHFLSNSGQQLLIDPSVFPVLEKHAFEGNVRELKNAADYMAAVSSGGTIQPYDLPPYIRGTIDGKTSKKKAKLLTLMEKAEFLFILETIKVLNEKGEPASRRIISEHSKNTQTSLTPQQVRSRLDYLEKKDYVTKSRGRAGTKITFEGLSFIETLKNQMILEHHHHHH,soluble
11,MCWYGDPGATYRYSGVSHQPSPWHEVLADLRTRIEAFSGHVFNAVLCNRYRSGRDSMGWHADDEPELGERPFIASLSLGAERLFRIRHRGTGRTLDVPLRDGDLLLMGGELQSHWRHCVPRTARPCGERINLTFRRVVPRSLEHHHHHH,not soluble
12,MTIRFDNVSYTYQKGTPYQHQAIHDVNTEFEQGKYYAIVGQTGSGKSTLIQNINALLKPTTGTVTVDDITITHKTKDKYIRPVRKRIGMVFQFPESQLFEDTVEREMIFGPKNFKMNLDEAKNYAHRLLMDLGFSRDVMSQSPFQMSGGQMRKIAIVSILAMNPDIIVVDEPTAGLDPQSKRQVMRLLKSLQTDENKAIILISHDMNEVARYADEVIVMKEGSIVSQTSPKELFKDKKKLADWHIGLPEIVQLQYDFEQKYQTKLKDIALTEEAFVSLYKEWQHEK,not soluble
13,NALHVINMVGTRHATPYGQDICTRFLADLSVLCPNALIVSGLAYGIDIHAHRAALQNHFKTIGVLAHGLDRIYPAEHRKTAVSMLEQGGLLTEFTSGTNPDRQNFVKRNRIVAGMSDATVVIESAAKGGALITAELAESYHRDCFAFPGRCNDEYSIGCNNLIRKNQAVLITSAEDLVKAMGWESSPKTEKT,not soluble
14,MRKIGIIGGTFDPPHYGHLLIANEVYHALNLEEVWFLPNQIPPHKQGRNITSVESRLQMLELATEAEEHFSICLEELSRKGPSYTYDTMLQLTKKYPDVQFHFIIGGDMVEYLPKWYNIEALLDLVTFVGVARPGYKLRTPYPITTVEIPEFAVSSSLLRERYKEKKTCKYLLPEKVQVYIERNGLYESLAAALEHHHHHH,soluble
15,MPLTPLHQVELRLMRTVIAICEAENIDYFLIGGSLLGAIRHHGFIPWDDDIDIGMRRHDYQRFIAVANHHLDPNKFFLQTGASDPDYALSYMKLLDVNTYIEERNNVNNAFKGVFVDIFPFDKIPDDEALRRSQMLHYKLADAAILLKLNYRFVKTPLRNLITKHTPQQLAEVNRYKLEREEYMRLYEQSDSRTYKNLASQYDYEKEIMTYQELTELTTVPFEDIQVKIPSAYDTILTRMYGDYMQLPPADKRVEKHLNKLIIDNHEILLEHHHHHH,not soluble
